Fewer inactive variants are shown than the library holds.
Experiments:
biotinyl-Phe-oxazolone = experiment: self-aminoacylation, catalytic enhancement (BFO) (fold over background); higher = more active; k-Seq, kA / k0A0; sequences stand for … in GGGAAUGGAUCCACAUCUACGAAUUC…UUCACUGCAGACUUGACGAAGCUG
Summary of the method: (§1)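 Each biotinyl-aminoacyl-oxazolone, at 2–1250 μM, was incubated with mutagenized RNA pools (0.43 μM) carrying a 21-nt variable region. The 50 μL reactions contained HEPES/NaCl/KCl/MgCl2/CaCl2 buffer with 5% acetonitrile at pH 6.9–7.0 and ran for 90 minutes at room temperature. After streptavidin capture, RNA was measured by qPCR in triplicate and by Illumina sequencing, and catalytic enhancement was calculated as median kA over the uncatalyzed rate from a pseudo-first-order fit of per-sequence fraction reacted.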

biotinyl-Ile-oxazolone = experiment: self-aminoacylation, catalytic enhancement (BIO) (fold over background); higher = more active; k-Seq, kA / k0A0; sequences stand for … in GGGAAUGGAUCCACAUCUACGAAUUC…UUCACUGCAGACUUGACGAAGCUG
Summary of the method: as §1

biotinyl-Met-oxazolone = experiment: self-aminoacylation, catalytic enhancement (BMO) (fold over background); higher = more active; k-Seq, kA / k0A0; sequences stand for … in GGGAAUGGAUCCACAUCUACGAAUUC…UUCACUGCAGACUUGACGAAGCUG
Summary of the method: as §1

biotinyl-Val-oxazolone = experiment: self-aminoacylation, catalytic enhancement (BVO) (fold over background); higher = more active; k-Seq, kA / k0A0; sequences stand for … in GGGAAUGGAUCCACAUCUACGAAUUC…UUCACUGCAGACUUGACGAAGCUG
Summary of the method: as §1

biotinyl-Leu-oxazolone = experiment: self-aminoacylation, catalytic enhancement (BLO) (fold over background); higher = more active; k-Seq, kA / k0A0; sequences stand for … in GGGAAUGGAUCCACAUCUACGAAUUC…UUCACUGCAGACUUGACGAAGCUG
Summary of the method: as §1

biotinyl-Trp-oxazolone = experiment: self-aminoacylation, catalytic enhancement (BWO) (fold over background); higher = more active; k-Seq, kA / k0A0; sequences stand for … in GGGAAUGGAUCCACAUCUACGAAUUC…UUCACUGCAGACUUGACGAAGCUG
Summary of the method: as §1

CCACACUUCAAGCAAUUGGCC [Fam1B.1 aminoacylation ribozyme variant]
self-aminoacylation (biotinyl-Phe-oxazolone): 2.34 | self-aminoacylation (biotinyl-Ile-oxazolone): 2.77 | self-aminoacylation (biotinyl-Met-oxazolone): 2.58 | self-aminoacylation (biotinyl-Val-oxazolone): 4.13 | self-aminoacylation (biotinyl-Leu-oxazolone): 3.18 | self-aminoacylation (biotinyl-Trp-oxazolone): 3.51

CCACACUUCAAGCACUCGGCC [Fam1B.1 aminoacylation ribozyme variant]
self-aminoacylation (biotinyl-Phe-oxazolone): 15.9 | self-aminoacylation (biotinyl-Ile-oxazolone): 3.06 | self-aminoacylation (biotinyl-Met-oxazolone): 2.89 | self-aminoacylation (biotinyl-Val-oxazolone): 4.04 | self-aminoacylation (biotinyl-Leu-oxazolone): 3.19 | self-aminoacylation (biotinyl-Trp-oxazolone): 5.51

CCACACUUCAAGCACUCGGUG [Fam1B.1 aminoacylation ribozyme variant]
self-aminoacylation (biotinyl-Phe-oxazolone): 22.4 | self-aminoacylation (biotinyl-Ile-oxazolone): 2.92 | self-aminoacylation (biotinyl-Met-oxazolone): 3.52 | self-aminoacylation (biotinyl-Val-oxazolone): 3.16 | self-aminoacylation (biotinyl-Leu-oxazolone): 4.22 | self-aminoacylation (biotinyl-Trp-oxazolone): 3.63

CCACACUUCAAGCAGCCGGUC [Fam1B.1 aminoacylation ribozyme variant]
self-aminoacylation (biotinyl-Phe-oxazolone): 0.916 | self-aminoacylation (biotinyl-Ile-oxazolone): 1.97 | self-aminoacylation (biotinyl-Met-oxazolone): 1.32 | self-aminoacylation (biotinyl-Val-oxazolone): 1.56 | self-aminoacylation (biotinyl-Leu-oxazolone): 1.82 | self-aminoacylation (biotinyl-Trp-oxazolone): 1.68

CCACACUUCAAGCAGGCGGUC [Fam1B.1 aminoacylation ribozyme variant]
self-aminoacylation (biotinyl-Phe-oxazolone): 0.771 | self-aminoacylation (biotinyl-Ile-oxazolone): 1.86 | self-aminoacylation (biotinyl-Met-oxazolone): 1.24 | self-aminoacylation (biotinyl-Val-oxazolone): 1.54 | self-aminoacylation (biotinyl-Leu-oxazolone): 1.07 | self-aminoacylation (biotinyl-Trp-oxazolone): 1.77

CCACACUUCAAGCAUUCAGUC [Fam1B.1 aminoacylation ribozyme variant]
self-aminoacylation (biotinyl-Phe-oxazolone): 1.03 | self-aminoacylation (biotinyl-Ile-oxazolone): 0.878 | self-aminoacylation (biotinyl-Met-oxazolone): 0.505 | self-aminoacylation (biotinyl-Val-oxazolone): 0.758 | self-aminoacylation (biotinyl-Leu-oxazolone): 0.576 | self-aminoacylation (biotinyl-Trp-oxazolone): 0.562

CCACACUUCAAGCCAUCGGCC [Fam1B.1 aminoacylation ribozyme variant]
self-aminoacylation (biotinyl-Phe-oxazolone): 5.27 | self-aminoacylation (biotinyl-Ile-oxazolone): 2.98 | self-aminoacylation (biotinyl-Met-oxazolone): 3.33 | self-aminoacylation (biotinyl-Val-oxazolone): 5 | self-aminoacylation (biotinyl-Leu-oxazolone): 2.85 | self-aminoacylation (biotinyl-Trp-oxazolone): 4.97

CCACACUUCAAGCCAUCGUUC [Fam1B.1 aminoacylation ribozyme variant]
self-aminoacylation (biotinyl-Phe-oxazolone): 0.848 | self-aminoacylation (biotinyl-Ile-oxazolone): 1.08 | self-aminoacylation (biotinyl-Met-oxazolone): 1.03 | self-aminoacylation (biotinyl-Val-oxazolone): 1.35 | self-aminoacylation (biotinyl-Leu-oxazolone): 1.24 | self-aminoacylation (biotinyl-Trp-oxazolone): 0.897

CCACACUUCAAGCGACCGGUC [Fam1B.1 aminoacylation ribozyme variant]
self-aminoacylation (biotinyl-Phe-oxazolone): 0.483 | self-aminoacylation (biotinyl-Ile-oxazolone): 1.22 | self-aminoacylation (biotinyl-Met-oxazolone): 1.11 | self-aminoacylation (biotinyl-Val-oxazolone): 1.52 | self-aminoacylation (biotinyl-Leu-oxazolone): 1.33 | self-aminoacylation (biotinyl-Trp-oxazolone): 1.63

CCACACUUCAAGCGAGCGGUC [Fam1B.1 aminoacylation ribozyme variant]
self-aminoacylation (biotinyl-Phe-oxazolone): 0.929 | self-aminoacylation (biotinyl-Ile-oxazolone): 0.983 | self-aminoacylation (biotinyl-Met-oxazolone): 0.603 | self-aminoacylation (biotinyl-Val-oxazolone): 1.11 | self-aminoacylation (biotinyl-Leu-oxazolone): 0.93 | self-aminoacylation (biotinyl-Trp-oxazolone): 0.744

CCACACUUCAAGCGAUCGCUC [Fam1B.1 aminoacylation ribozyme variant]
self-aminoacylation (biotinyl-Phe-oxazolone): 4.68 | self-aminoacylation (biotinyl-Ile-oxazolone): 2.62 | self-aminoacylation (biotinyl-Met-oxazolone): 1.85 | self-aminoacylation (biotinyl-Val-oxazolone): 2.03 | self-aminoacylation (biotinyl-Leu-oxazolone): 2.28 | self-aminoacylation (biotinyl-Trp-oxazolone): 2.83

CCACACUUCAAGCGAUCGGGC [Fam1B.1 aminoacylation ribozyme variant]
self-aminoacylation (biotinyl-Phe-oxazolone): 1.07 | self-aminoacylation (biotinyl-Ile-oxazolone): 2.4 | self-aminoacylation (biotinyl-Met-oxazolone): 2.65 | self-aminoacylation (biotinyl-Val-oxazolone): 2.89 | self-aminoacylation (biotinyl-Leu-oxazolone): 1.64 | self-aminoacylation (biotinyl-Trp-oxazolone): 3.13

CCACACUUCAAGCGAUCGGUA [Fam1B.1 aminoacylation ribozyme variant]
self-aminoacylation (biotinyl-Phe-oxazolone): 1.73 | self-aminoacylation (biotinyl-Ile-oxazolone): 1.22 | self-aminoacylation (biotinyl-Met-oxazolone): 1.48 | self-aminoacylation (biotinyl-Val-oxazolone): 2.2 | self-aminoacylation (biotinyl-Leu-oxazolone): 1.58 | self-aminoacylation (biotinyl-Trp-oxazolone): 0.843

CCACACUUCAAGCGAUCGGUU [Fam1B.1 aminoacylation ribozyme variant]
self-aminoacylation (biotinyl-Phe-oxazolone): 3.6 | self-aminoacylation (biotinyl-Ile-oxazolone): 1.77 | self-aminoacylation (biotinyl-Met-oxazolone): 1.48 | self-aminoacylation (biotinyl-Val-oxazolone): 2.08 | self-aminoacylation (biotinyl-Leu-oxazolone): 1.53 | self-aminoacylation (biotinyl-Trp-oxazolone): 1.77

CCACACUUCAAGCUAUCGGCC [Fam1B.1 aminoacylation ribozyme variant]
self-aminoacylation (biotinyl-Phe-oxazolone): 0.862 | self-aminoacylation (biotinyl-Ile-oxazolone): 1.62 | self-aminoacylation (biotinyl-Met-oxazolone): 1.7 | self-aminoacylation (biotinyl-Val-oxazolone): 1.51 | self-aminoacylation (biotinyl-Leu-oxazolone): 1.82 | self-aminoacylation (biotinyl-Trp-oxazolone): 1.81

CCACACUUCAAGCUAUCGGGC [Fam1B.1 aminoacylation ribozyme variant]
self-aminoacylation (biotinyl-Phe-oxazolone): 1.57 | self-aminoacylation (biotinyl-Ile-oxazolone): 1.67 | self-aminoacylation (biotinyl-Met-oxazolone): 1.46 | self-aminoacylation (biotinyl-Val-oxazolone): 1.76 | self-aminoacylation (biotinyl-Leu-oxazolone): 1.45 | self-aminoacylation (biotinyl-Trp-oxazolone): 2.2

CCACACUUCAAGCUAUGGGUC [Fam1B.1 aminoacylation ribozyme variant]
self-aminoacylation (biotinyl-Phe-oxazolone): 0.774 | self-aminoacylation (biotinyl-Ile-oxazolone): 0.966 | self-aminoacylation (biotinyl-Met-oxazolone): 0.875 | self-aminoacylation (biotinyl-Val-oxazolone): 0.911 | self-aminoacylation (biotinyl-Leu-oxazolone): 0.763 | self-aminoacylation (biotinyl-Trp-oxazolone): 0.724

CCACACUUCAAGGAAGCGGUC [Fam1B.1 aminoacylation ribozyme variant]
self-aminoacylation (biotinyl-Phe-oxazolone): 0.364 | self-aminoacylation (biotinyl-Ile-oxazolone): 0.986 | self-aminoacylation (biotinyl-Met-oxazolone): 1.06 | self-aminoacylation (biotinyl-Val-oxazolone): 1.28 | self-aminoacylation (biotinyl-Leu-oxazolone): 1.13 | self-aminoacylation (biotinyl-Trp-oxazolone): 0.619

CCACACUUCAAGGAAUCGGGC [Fam1B.1 aminoacylation ribozyme variant]
self-aminoacylation (biotinyl-Phe-oxazolone): 1.44 | self-aminoacylation (biotinyl-Ile-oxazolone): 2.98 | self-aminoacylation (biotinyl-Met-oxazolone): 3.01 | self-aminoacylation (biotinyl-Val-oxazolone): 2.85 | self-aminoacylation (biotinyl-Leu-oxazolone): 2.86 | self-aminoacylation (biotinyl-Trp-oxazolone): 3.41

CCACACUUCAAGGAAUCGGUG [Fam1B.1 aminoacylation ribozyme variant]
self-aminoacylation (biotinyl-Phe-oxazolone): 52.1 | self-aminoacylation (biotinyl-Ile-oxazolone): 4.9 | self-aminoacylation (biotinyl-Met-oxazolone): 7.21 | self-aminoacylation (biotinyl-Val-oxazolone): 4.61 | self-aminoacylation (biotinyl-Leu-oxazolone): 10.5 | self-aminoacylation (biotinyl-Trp-oxazolone): 6.57

CCACACUUCAAGGAAUCGGUU [Fam1B.1 aminoacylation ribozyme variant]
self-aminoacylation (biotinyl-Phe-oxazolone): 0.969 | self-aminoacylation (biotinyl-Ile-oxazolone): 1.34 | self-aminoacylation (biotinyl-Met-oxazolone): 1.39 | self-aminoacylation (biotinyl-Val-oxazolone): 1.57 | self-aminoacylation (biotinyl-Leu-oxazolone): 1.43 | self-aminoacylation (biotinyl-Trp-oxazolone): 1.16

CCACACUUCAAGGAAUCUGUC [Fam1B.1 aminoacylation ribozyme variant]
self-aminoacylation (biotinyl-Phe-oxazolone): 0.473 | self-aminoacylation (biotinyl-Ile-oxazolone): 0.384 | self-aminoacylation (biotinyl-Met-oxazolone): 0.442 | self-aminoacylation (biotinyl-Val-oxazolone): 0.446 | self-aminoacylation (biotinyl-Leu-oxazolone): 0.318 | self-aminoacylation (biotinyl-Trp-oxazolone): 0.287

CCACACUUCAAGUAAUCGGUG [Fam1B.1 aminoacylation ribozyme variant]
self-aminoacylation (biotinyl-Phe-oxazolone): 33.4 | self-aminoacylation (biotinyl-Ile-oxazolone): 3.28 | self-aminoacylation (biotinyl-Met-oxazolone): 4.68 | self-aminoacylation (biotinyl-Val-oxazolone): 2.98 | self-aminoacylation (biotinyl-Leu-oxazolone): 6.33 | self-aminoacylation (biotinyl-Trp-oxazolone): 4.68

CCACACUUCAAGUACUCGGUC [Fam1B.1 aminoacylation ribozyme variant]
self-aminoacylation (biotinyl-Phe-oxazolone): 0.703 | self-aminoacylation (biotinyl-Ile-oxazolone): 1.17 | self-aminoacylation (biotinyl-Met-oxazolone): 1.06 | self-aminoacylation (biotinyl-Val-oxazolone): 1.09 | self-aminoacylation (biotinyl-Leu-oxazolone): 0.875 | self-aminoacylation (biotinyl-Trp-oxazolone): 0.789

CCACACUUCAAGUAUUCGGUC [Fam1B.1 aminoacylation ribozyme variant]
self-aminoacylation (biotinyl-Phe-oxazolone): 0.932 | self-aminoacylation (biotinyl-Ile-oxazolone): 1.63 | self-aminoacylation (biotinyl-Met-oxazolone): 1.42 | self-aminoacylation (biotinyl-Val-oxazolone): 1.64 | self-aminoacylation (biotinyl-Leu-oxazolone): 1.39 | self-aminoacylation (biotinyl-Trp-oxazolone): 1.52

— the supplement of paper PMC9233669
